Data published in publication PMC3755756 (Developmental cell, 2013).

Target: ubiquitin (15N-Ub) (UniProt P0CG48 1-76)
Experiment: NMR titration

Kd [µM]	Binder
~50	V domain of HD-PTP (domain or fragment, human, UniProt Q9H3S7 401-714, looked up) MQLDPETVDNLDAYSHIPPQLMEKCAALSVRPDTVRNLVQSMQVLSGVFTDVEASLKDIRDLLEEDELLEQKFQEAVGQAGAISITSKAELAEVRREWAKYMEVHEKASFTNSELHRAMNLHVGNLRLLSGPLDQVRAALPTPALSPEDKAVLQNLKRILAKVQEMRDQRVSLEQQLRELIQKDDITASLVTTDHSEMKKLFEEQLKKYDQLKVYLEQNLAAQDRVLCALTEANVQYAAVRRVLSDLDQKWNSTLQTLVASYEAYEDLMKKSQEGRDFYADLESKVAALLERTQSTCQAREAARQQLLDRELKK
~50	V domain of human Alix (domain or fragment) FEKMVPVSVQQSLAAYNQRKADLVNRSIAQMREATTLANGVLASLNLPAAIEDVSGDTVPQSILTKSRSVIEQGGIQTVDQLIKELPELLQRNREILDESLRLLDEEEATDNDLRAKFKERWQRTPSNELYKPLRAEGTNFRTVLDKAVQADGQVKECYQSHRDTIVLLCKPEPELNAAIPSANPAKTMQGSEVVNVLKSLLSNLDEVKKEREGLENDLKSVNFDMTSKFLTALAQDGVINEEALSVTELDRVYGGLTTKVQESLKKQEGLLKNIQVSHQEFSKMKQSNNEANLREEVLKNLATAYDNFVELVANLKEGTKFYNELTEILVRFQNKCSDIVFARKTER
